This note sets out measurements from PMC3326331 (Nucleic Acids Research, 2011).

This experiment concerns the target T1, His6-tagged human PSF (polypyrimidine tract binding protein associated splicing factor) (human, UniProt P23246 1-707).
T1 sequence (looked up): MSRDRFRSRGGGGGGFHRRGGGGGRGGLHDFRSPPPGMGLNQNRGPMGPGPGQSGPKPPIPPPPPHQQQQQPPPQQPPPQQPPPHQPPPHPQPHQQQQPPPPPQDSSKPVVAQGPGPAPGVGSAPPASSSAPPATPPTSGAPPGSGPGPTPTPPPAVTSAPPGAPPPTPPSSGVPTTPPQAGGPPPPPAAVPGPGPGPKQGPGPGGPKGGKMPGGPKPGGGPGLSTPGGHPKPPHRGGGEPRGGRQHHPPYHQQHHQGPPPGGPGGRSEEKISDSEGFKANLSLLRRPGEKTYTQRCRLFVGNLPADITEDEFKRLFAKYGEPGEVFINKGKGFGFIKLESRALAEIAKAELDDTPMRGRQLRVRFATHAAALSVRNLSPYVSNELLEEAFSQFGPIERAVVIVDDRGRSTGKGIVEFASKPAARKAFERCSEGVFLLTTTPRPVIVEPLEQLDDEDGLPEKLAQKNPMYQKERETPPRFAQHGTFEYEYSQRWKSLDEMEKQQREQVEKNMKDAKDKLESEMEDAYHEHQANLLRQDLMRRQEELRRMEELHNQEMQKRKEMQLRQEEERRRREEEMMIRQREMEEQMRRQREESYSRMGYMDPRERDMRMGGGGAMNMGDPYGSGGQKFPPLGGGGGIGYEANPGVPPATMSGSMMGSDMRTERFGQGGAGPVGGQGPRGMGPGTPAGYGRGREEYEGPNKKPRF
Kind of experiment: pull-down.

B1: human RAD51 (natural protein, UniProt Q06609 1-339, looked up)
chain: MAMQMQLEANADTSVEEESFGPQPISRLEQCGINANDVKKLEEAGFHTVEAVAYAPKKELINIKGISEAKADKILAEAAKLVPMGFTTATEFHQRRSEIIQITTGSKELDKLLQGGIETGSITEMFGEFRTGKTQICHTLAVTCQLPIDRGGGEGKAMYIDTEGTFRPERLLAVAERYGLSGSDVLDNVAYARAFNTDHQTQLLYQASAMMVESRYALLIVDSATALYRTDYSGRGELSARQMHLARFLRMLLRLADEFGVAVVITNQVVAQVDGAAMFAADPKKPIGGNIIAHASTTRLYLRKGRGETRICKIYDSPCLPEAEAMFAINADGVGDAKD
Take B1: the binding result is “binds”.

B2: human DMC1 (natural protein, UniProt Q14565 1-340, looked up)
chain: MKEDQVVAEEPGFQDEEESLFQDIDLLQKHGINVADIKKLKSVGICTIKGIQMTTRRALCNVKGLSEAKVDKIKEAANKLIEPGFLTAFEYSEKRKMVFHITTGSQEFDKLLGGGIESMAITEAFGEFRTGKTQLSHTLCVTAQLPGAGGYPGGKIIFIDTENTFRPDRLRDIADRFNVDHDAVLDNVLYARAYTSEHQMELLDYVAAKFHEEAGIFKLLIIDSIMALFRVDFSGRGELAERQQKLAQMLSRLQKISEEYNVAVFVTNQMTADPGATMTFQADPKKPIGGHILAHASTTRISLRKGRGELRIAKIYDSPEMPENEATFAITAGGIGDAKE
Regarding B2, the binding result is reported as “binds”.
